From article doi:10.1101/2025.01.15.633204

Molecular target: barnase (Bacillus amyloliquefaciens) (UniProt P00648)
Experiment: BLI

Sequence of UniProt P00648 (P00648 48-157): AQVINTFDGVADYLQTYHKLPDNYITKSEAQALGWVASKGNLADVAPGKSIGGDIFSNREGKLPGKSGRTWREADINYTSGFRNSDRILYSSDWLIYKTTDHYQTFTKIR

Kd: < 0.1 nM
Substance: green fluorescent protein-Bs (GFP-Bs) fusion protein
